Experimental data: article PMC8160712

Target: Recombinant protein G from Escherichia coli (group G Streptococci) (UniProt P06654)
Assay: total internal reflected imaging ellipsometry (TIRIE); protein G immobilised on EDC/NHS-activated MUA gold surface (100 μg/mL in the whole-process run); antibody flowed over for 20 min, rinsed with PBST; real-time grayscale signal

Row | Substance | TIRIE signal increase [grayscale] | TIRIE signal increment with protein G
1 | Anti-CD9 antibody [MEM-61] | 900 | 640
2 | Anti-CD63 antibody [MEM-259] | 900 | 650
